{
  "source": "patent US20230210897A1",
  "assay_in_all_cases": "cell-based or functional assay",
  "key": {"[1]": {"molecular_target": "wild-type TGFβRII on untransduced (UT) cord blood-derived NK cells (human) (UniProt P37173)"}, "[2]": {"molecular_target": "RBDNR receptor (truncated TGFβ dominant negative receptor) (human) (UniProt P37173)"}, "[3]": {"molecular_target": "NKA receptor (truncated TGFβ dominant negative receptor fused to DAP12) (human)", "sequence (chain, as listed by the source limits assumed, form in doubt)": "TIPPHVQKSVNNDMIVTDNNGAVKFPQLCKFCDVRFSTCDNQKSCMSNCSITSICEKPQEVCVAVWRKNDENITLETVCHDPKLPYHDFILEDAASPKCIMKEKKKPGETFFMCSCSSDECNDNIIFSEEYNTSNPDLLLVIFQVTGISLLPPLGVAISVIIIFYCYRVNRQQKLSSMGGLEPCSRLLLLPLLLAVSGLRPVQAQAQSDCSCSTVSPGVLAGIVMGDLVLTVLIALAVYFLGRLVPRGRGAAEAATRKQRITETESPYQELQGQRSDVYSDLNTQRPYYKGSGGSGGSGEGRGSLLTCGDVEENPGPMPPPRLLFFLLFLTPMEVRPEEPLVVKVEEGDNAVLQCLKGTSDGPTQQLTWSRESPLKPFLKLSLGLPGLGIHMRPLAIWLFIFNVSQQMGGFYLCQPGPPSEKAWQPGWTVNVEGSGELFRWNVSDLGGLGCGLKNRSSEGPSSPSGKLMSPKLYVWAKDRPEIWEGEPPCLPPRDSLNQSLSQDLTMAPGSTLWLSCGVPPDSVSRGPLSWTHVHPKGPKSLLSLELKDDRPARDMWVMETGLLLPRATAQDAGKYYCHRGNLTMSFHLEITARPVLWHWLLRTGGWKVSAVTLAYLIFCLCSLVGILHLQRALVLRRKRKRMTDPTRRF"}, "[4]": {"molecular_target": "NKCT receptor (truncated TGFβ dominant negative receptor fused to a SynNotch receptor coupled to RELA/p65) (human) (UniProt P37173)"}},
  "data": [
    {"substance": "TGFβ (ligand)", "values": [
      {"measurement": "phosphorylated Smad2/3 (Ser465/467) by flow cytometry in untransduced NK cells, 1 hour after 10 ng/mL TGFβ", "setting": "[1]", "result": 73.9, "unit": "%"},
      {"measurement": "protection from TGFβ-impaired cytolytic activity in vitro (TGFβ concentration at which protection is lost)", "setting": "[2]", "result": "> 50", "unit": "ng/mL"},
      {"measurement": "protection from TGFβ-impaired cytolytic activity in vitro (TGFβ concentration at which protection is lost)", "setting": "[3]", "result": "> 50", "unit": "ng/mL"},
      {"measurement": "protection from TGFβ-impaired cytolytic activity in vitro (TGFβ concentration at which protection is lost)", "setting": "[4]", "result": "> 50", "unit": "ng/mL"}
    ]}
  ]
}
